The text below walks through data of article PMC6614557 (Nature medicine, 2018).

The Kd is the concentration at which binding is half-saturated. A higher Kd goes with a looser complex. Broadly, the stoichiometry N is the number of molecules, sites or subunits per partner or assembly.

Series [1] concerns the target T1, ONECUT2 (OC2), OC2-HOX domain (Homo sapiens, UniProt O95948).
T1 sequence (O95948 330-485): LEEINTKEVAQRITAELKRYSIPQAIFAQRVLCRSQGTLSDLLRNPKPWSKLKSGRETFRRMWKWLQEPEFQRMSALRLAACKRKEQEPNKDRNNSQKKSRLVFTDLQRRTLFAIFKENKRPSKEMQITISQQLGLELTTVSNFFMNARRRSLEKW
Kind of series: SPR, His-tagged OC2-HOX immobilized, […] model fit. The class given is binding. In general terms: In SPR one partner is held on a chip, and binding of the other changes the refractive index at the surface.

The series “SEC” concerns the molecule itself. Kind of series: SEC. On the technique in general: Size exclusion chromatography separates by hydrodynamic size, large species first.
Series [2] deals with T2, OC2-HOX (ONECUT2 homeodomain construct) (Homo sapiens, UniProt O95948 330-485).
T2 sequence: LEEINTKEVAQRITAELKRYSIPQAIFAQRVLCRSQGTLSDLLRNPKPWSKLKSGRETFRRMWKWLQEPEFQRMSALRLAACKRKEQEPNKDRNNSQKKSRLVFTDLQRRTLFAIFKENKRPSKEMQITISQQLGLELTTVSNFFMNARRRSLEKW
The experiment in a line: SPR.

In the case of `NC(CO)C(=O)N/N=C/c1ccc(O)c(O)c1O` (racemic) [CSRM617, 1-{(E)-[(2,3,4-Trihydroxyphenyl)methylidene]hydrazino}−2-amino-3-hydroxy-1-propanone], binding in series [1] was put at a Kd of 7.43 µM.

B1: Recombinant OC2-HOX domain (L330-W485) of OC2 (domain or fragment, human, UniProt O95948 330-485, looked up)
chain: LEEINTKEVAQRITAELKRYSIPQAIFAQRVLCRSQGTLSDLLRNPKPWSKLKSGRETFRRMWKWLQEPEFQRMSALRLAACKRKEQEPNKDRNNSQKKSRLVFTDLQRRTLFAIFKENKRPSKEMQITISQQLGLELTTVSNFFMNARRRSLEKW
As to B1, the “stoichiometry N” value in the series “SEC” turned out to be 2.

B2: PEG10 promoter OC2 motif probe (dsDNA)
DNA 1: TAGATCGATTTGCA
DNA 2: TGCAAATCGATCTA
In the case of B2, in series [2], the Kd is around 0.001 µM.
